{
  "source": "paper PMC3019263",
  "about": "(Archives of biochemistry and biophysics, 2010)",
  "proteins": {"B1": {"name": "PheH117, the regulatory domain of rat phenylalanine hydroxylase, lacking residues after Thr117 (domain or fragment, UniProt P04176 1-117, looked up)", "chain": "MAAVVLENGVLSRKLSDFGQETSYIEDNSNQNGAISLIFSLKEEVGALAKVLRLFEENDINLTHIESRPSRLNKDEYEFFTYLDKRTKPVLGSIIKSLRNDIGATVHELSRDKEKNT"}},
  "target": "the molecule itself",
  "assay": "SEC",
  "data": [
    {"protein": "B1", "values": [
      {"measurement": "stoichiometry N", "value": 2}
    ]}
  ]
}
